Key:
D-val-leu-lys-pNA = biological target: T1, D-val-leu-lys-pNA
T1 chain: VLK

[1] = biological target: Protamine sulfate from salmon
[2] = biological target: T2, human recombinant IFN-γ, P01579
T2 chain: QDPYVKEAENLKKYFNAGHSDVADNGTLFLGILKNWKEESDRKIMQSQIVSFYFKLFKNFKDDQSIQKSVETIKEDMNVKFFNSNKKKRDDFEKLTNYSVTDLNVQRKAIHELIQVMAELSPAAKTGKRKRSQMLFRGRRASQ

[3] = biological target: human recombinant TNF-α, P01375
[4] = biological target: T3, mouse recombinant IFN-γ, P01580
T3 chain: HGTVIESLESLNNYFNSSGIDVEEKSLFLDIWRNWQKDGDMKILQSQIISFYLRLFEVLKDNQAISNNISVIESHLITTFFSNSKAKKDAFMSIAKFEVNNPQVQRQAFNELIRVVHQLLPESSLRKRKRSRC

[5] = biological target: T4, mouse recombinant TNF-α, P06804
T4 chain: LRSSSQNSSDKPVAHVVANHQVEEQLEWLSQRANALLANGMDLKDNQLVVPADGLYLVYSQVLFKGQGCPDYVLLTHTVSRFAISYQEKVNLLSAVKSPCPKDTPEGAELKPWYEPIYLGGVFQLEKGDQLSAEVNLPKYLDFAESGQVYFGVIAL

human recombinant TNF-α, P01375, sequence (P01375 77-233): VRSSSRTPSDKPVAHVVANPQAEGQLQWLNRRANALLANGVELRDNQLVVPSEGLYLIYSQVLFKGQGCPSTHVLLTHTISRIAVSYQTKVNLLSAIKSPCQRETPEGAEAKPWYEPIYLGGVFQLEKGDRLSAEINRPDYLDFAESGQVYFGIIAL

| Protein | Specific activity: Val-leu-lys-pNA (mOD/min/µg protein) (mOD/min/µg protein) (D-val-leu-lys-pNA) | Specific activity: Salmon protamine (nmoles Leucine/30 min./µg protein) (nmoles Leucine/30 min./µg protein) [1] | cleavage by Western blot [2] | proteolysis by Western blotting [3] | cleavage by Western blotting [4] | cleavage by Western blotting [5] |
| --- | --- | --- | --- | --- | --- | --- |
| Aspergillus oryzae alkaline protease (protein) GLTTQKSAPWGLGSISHKGQQSTDYIYDTSAGEGTYAYVVDSGVNVDHEEFEGRASKAYNAAGGQHVDSIGHGTHVSGTIAGKTYGIAKKASILSVKVFQGESSSTSVILDGFNWAANDIVSKKRTSKAAINMSLGGGYSKAFNDAVENAFEQGVLSVVAAGNENSDAGQTSPASAPDAITVAAIQKSNNRASFSNFGKVVDVFAPGQDILSAWIGSSSATNTISGTSMATPHIVGLSLYLAALENLDGPAAVTKRIKELATKDWKDVKGSPNLLAYNGNA | 117 | 951 | the protease did not cleave human IFN-γ | produced a similar pattern of cleavage | evidenced the same substrate specificity | evidenced the same substrate specificity |
| Aspergillus oryzae Deuterolysin (Neutral Protease II) (protein) TEVTDCKGDAESSLTTALSNAAKLANQAAEAAESGDESKFEEYFKTTDQQTRTTVAERLRAVAKEAGSTSGGSTTYHCNDPYGYCEPNVLAYTLPSKNEIANCDIYYSELPPLAQKCHAQDQATTTLHEFTHAPGVYQPGTEDLGYGYDAATQLSAQDALNNADSYALYANAIELKC | 2.3 | 677 | cleave human IFN-γ | deuterolysin was without significant effect | – | – |
| Aspergillus oryzae 26 kDa protease (protein) HASADAWASSKAISSTSSPSSFKMRFISVSSLLLALAPALNAVPVEVAGSAQGLDVTLSQVGNTRIKAWKNTGSEDVTFVHLNFFKDAAPVQKVSLFRNATEVQFQGIKQRLITEGLSDDALTTLAPGATIEDEFDIASTSDLSEGGTITINSNGLVPITTDNKVTGYIPFTSNELSIDVDAAEAASVTQAVKILERRTKVTSCSGSRLSALQTALRNTVSLARAAATAAQSGSSSRFQEYFKTTSSSTRSTVAARLNAVANEAASTSSGSTTYYCSDVYGYCSSNVLAYTLPSYNIIANCDLYYSYLPALTSTCHAQDQATTTLHEFTHAPGVYSPGTDDLGYGYSAATALSASQALLNADTYALFANAVNLNC | 2.1 | 679 | cleave human IFN-γ | – | – | – |

Source: patent US20080081035
